For assay [1], the target named is T1, Hla蛋白 (Staphylococcus aureus).
For assay [2], the target named is T1, Hla蛋白. This is another data set of the same source.

T1 sequence (Q2G1X0 27-319 limits assumed): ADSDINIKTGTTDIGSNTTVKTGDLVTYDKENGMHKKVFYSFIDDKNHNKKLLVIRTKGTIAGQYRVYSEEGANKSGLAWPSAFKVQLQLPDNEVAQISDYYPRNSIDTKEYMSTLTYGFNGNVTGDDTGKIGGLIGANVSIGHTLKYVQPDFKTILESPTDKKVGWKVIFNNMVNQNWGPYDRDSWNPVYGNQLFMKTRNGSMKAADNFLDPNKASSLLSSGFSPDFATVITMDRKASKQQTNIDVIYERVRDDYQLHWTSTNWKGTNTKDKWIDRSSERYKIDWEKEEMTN

B1: AAH-1抗体 (antibody, V domains shown)
VH: QMQLVQSGAEIRRPGSLVKVSCQASGGSFKNFALNWVRQAPGLGLQWMGSITPFLNVPTYAQQFQGRVTMSTDTSTSTAYMVLRRLTSDDTAVYYCARGNSLLDYWGQGTLVTVSS
VL: EIVLTQSPATLSVSPGDGATLSCRASQSVSGNLAWYQKKPGQAPRLLIYDTSIRAAGVPPRFSGSGSGTEFTLTISSLQSEDFAVYYCQQYHNLPPLTFGPGTKLEIK
What is called EC50 is the midpoint of the concentration-response curve. A high value points to a need for much substance. By Kd is commonly meant the equilibrium constant for the complex coming apart. High values mean weaker binding, low ones tighter binding. In general, koff refers to the rate constant with which the complex falls apart. Lower therefore signals a long-lived complex. The kon is a measure of how fast the partners come together. Higher therefore signals fast association. B1 displayed a concentration giving a half-maximal response (EC50) with Hla蛋白 [1] of 0.075 µg/mL. Further, in the assay with Hla蛋白 [2], the equilibrium dissociation constant (Kd) was found to be 1.92 nM, the koff came to 0.000255 s⁻¹ and the kon came out at 133000 M⁻¹ s⁻¹.

The values above are taken from CN109384844A (INST OF BASIC MEDICAL SCIENCES THE ACADEMY OF MILITARY …, dated 2019).
